Source: publication PMC6603201

B1: recombinant mouse CXCL10 (ligand)
chain: IPLARTVRCNCIHIDDGPVRMRAIGKLEIIPASLSCPRVEIIATMKKNDEQRCLNPESKTIKNLMKAFSQKRSKRAP
B2: recombinant mouse CCL19 (ligand)
chain: GANDAEDCCLSVTQRPIPGNIVKAFRYLLNEDGCRVPAVVFTTLRGYQLCAPPDQPWVDRIIRRLKKSSAKNKGNSTRRSPVS
B3: recombinant mouse CXCL1 (ligand)
chain: APIANELRCQCLQTMAGIHLKNIQSLKVLPSGPHCTQTEVIATLKNGREACLDPEAPLVQKIVQKMLKGVPK
B4: recombinant mouse CXCL2 (ligand)
chain: AVVASELRCQCLKTLPRVDFKNIQSLSVTPPGPHCAQTEVIATLKGGQKVCLDPEAPLVQKIIQKILNKGKAN
B5: recombinant mouse CXCL4 (ligand)
chain: VTSAGPEESDGDLSCVCVKTISSGIHLKHITSLEVIKAGRHCAVPQLIATLKNGRKICLDRQAPLYKKVIKKILES
B6: recombinant mouse CCL3 (ligand)
chain: APYGADTPTACCFSYSRKIPRQFIVDYFETSSLCSQPGVIFLTKRNRQICADSKETWVQEYITDLELNA
B7: recombinant mouse CCL22 (ligand)
chain: GPYGANVEDSICCQDYIRHPLPSRLVKEFFWTSKSCRKPGVVLITVKNRDICADPRQVWVKKLLHKLS
B8: recombinant mouse XCL1 (ligand)
chain: VGTEVLEESSCVNLQTQRLPVQKIKTYIIWEGAMRAVIFVTKRGLKICADPEAKWVKAAIKTVDGRASTRKNMAETVPTGAQRSTSTAITLTG

Experiments:
Assay in all cases: SPR; CBP-FLAG immobilised by amine coupling on a CM5 chip (300-400 RU, 10 mM sodium acetate pH 4.5); serial dilutions of mouse chemokine flowed in triplicate for 3 min, 10 min dissociation; 25°C; HBS-EP buffer (20 mM HEPES, 150 mM NaCl, 3.4 mM EDTA, 0.005% Polysorbate 20, pH 7.4); Biacore X100; global fit with a 1:1 binding model
[1] = target: PVNZ112.6-CBP (Parapoxvirus of red deer in New Zealand (PVNZ), strain RD86)
[2] = target: PVNZ112.0-CBP (Parapoxvirus of red deer in New Zealand (PVNZ), strain RD86)
[3] = target: PVNZ112.3-CBP (Parapoxvirus of red deer in New Zealand (PVNZ), strain RD86)

Molecule	Kd [1] [nM]	koff [1] [s⁻¹]	kon [1] [M⁻¹ s⁻¹]	Kd [2] [nM]	koff [2] [s⁻¹]	kon [2] [M⁻¹ s⁻¹]	Kd [3] [nM]	koff [3] [s⁻¹]	kon [3] [M⁻¹ s⁻¹]
recombinant mouse CCL2 (from UniProt P10148 24-148) (ligand)	0.03	0.00037	1.18e+07						
recombinant mouse CCL21 (from UniProt P84444 24-133) (ligand)	0.52	0.0103	1.95e+07	12.9	0.00682	530000	17.9	0.00251	140000
B1	10.4	0.00146	140000	7.29	0.00708	970000	82.5	0.0198	240000
B2	0.13	0.00132	1e+07				15.8	0.00158	10000
B3							0.66	0.00169	2.54e+06
B4							0.48	0.00087	1.79e+06
B5	0.59	0.011	1.85e+07	25.9	0.0044	170000	0.97	0.00126	1.29e+06
B6	2.51	0.0358	1.42e+07						
B7	0.02	0.00047	2.17e+07						
B8				30.8	0.00203	60000			
